Assay results as given in patent publication US20180170995A1 (LEVICEPT, published 2018).
Blank lines part the entries; values can stand above or below the binder they belong to.

Target: TrkB receptor (UniProt Q16620 32-822, limits assumed)
Assay: cell-based or functional assay

TrkB receptor, sequence (Q16620 32-822 limits assumed): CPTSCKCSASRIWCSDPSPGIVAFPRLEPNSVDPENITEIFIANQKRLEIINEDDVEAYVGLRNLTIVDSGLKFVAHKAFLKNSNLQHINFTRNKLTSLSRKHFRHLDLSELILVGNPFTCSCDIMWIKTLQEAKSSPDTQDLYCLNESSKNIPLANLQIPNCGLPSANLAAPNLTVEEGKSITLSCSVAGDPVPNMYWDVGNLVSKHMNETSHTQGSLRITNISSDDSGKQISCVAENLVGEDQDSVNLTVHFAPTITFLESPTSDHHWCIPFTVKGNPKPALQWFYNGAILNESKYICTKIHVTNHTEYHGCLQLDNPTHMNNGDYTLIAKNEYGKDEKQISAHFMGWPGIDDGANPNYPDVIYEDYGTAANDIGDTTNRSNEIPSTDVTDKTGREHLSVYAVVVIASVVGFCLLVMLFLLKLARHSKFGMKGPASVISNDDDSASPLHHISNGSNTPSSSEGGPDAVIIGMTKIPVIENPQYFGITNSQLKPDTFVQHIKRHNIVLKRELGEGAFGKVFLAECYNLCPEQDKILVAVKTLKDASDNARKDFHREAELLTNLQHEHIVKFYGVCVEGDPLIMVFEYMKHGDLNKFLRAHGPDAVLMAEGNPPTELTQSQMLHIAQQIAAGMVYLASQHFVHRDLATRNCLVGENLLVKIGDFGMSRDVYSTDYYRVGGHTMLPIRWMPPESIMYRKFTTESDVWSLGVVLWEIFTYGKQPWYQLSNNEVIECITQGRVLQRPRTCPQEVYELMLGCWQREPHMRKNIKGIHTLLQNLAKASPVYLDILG

EC50, NT-4-induced activation of TrkB (luminescence, DiscoverX kit cells): 0.012 nM
B1: neurotrophin-4 (NT-4) (ligand, UniProt P34130 81-210, looked up)
chain: GVSETAPASRRGELAVCDAVSGWVTDRRTAVDLRGREVEVLGEVPAAGGSPLRQYFFETRCKADNAEEGGPGAGGGGCRGVDRRHWVSECKAKQSYVRALTADAQGRVGWRWIRIDTACVCTLLSRTGRA

EC50, BDNF-induced activation of TrkB (luminescence, DiscoverX kit cells): 0.7 nM
B2: brain-derived neurotrophic factor (BDNF) (ligand, UniProt P23560 129-247, looked up)
chain: HSDPARRGELSVCDSISEWVTAADKKTAVDMSGGTVTVLEKVPVSKGQLKQYFYETKCNPMGYTKEGCRGIDKRHWNSQCRTTQSYVRALTMDSKKRIGWRFIRIDTSCVCTLTIKRGR
